This experiment concerns the target α3 subunit isoform of Na, K-ATPase (human) (UniProt P13637). Put plainly: Western blot of control lysate, antibody at 1:2000, chemiluminescence, band density by Alpha DigiDoc 1000. Background: Immunoblotting shows a protein as a band on a membrane.
Regarding “α3 monoclonal antibody from Affinity Bioreagents (Golden, Colo.)”, the Average density came to 45200.

The substance “α3 monoclonal antibody from Novus (Littleton, Colo.)” gave an Average density of 41100. As for “α3 monoclonal antibody from Sigma (St Louis, Mo.)”, the figure is 44600.

The values above are taken from patent publication US20100317541A1.
